Measured values: the supplement of paper PMC10126150
± gives the standard deviation of the averaged measurements.

Test system: ATP
Assay: switch fluorescence ratio, 500 uM ATP over buffer (Cy3 cluster intensity, sum of 5 cycles each) (fold (ratio)); higher = stronger signal-on switching upon ATP binding; sequences stand for … in TCGTCGGCAGCGTCAGATGTGTATAAGAGACAGTTTTTTTTTTTTTTTTTTTTTTTTT…TC
Details: aptamer strand: ATP DNA aptamer (quencher-CACCTGGGGGAGTATTGCGGAGGAAGG + anchor), 100 nM annealed; ATP concentration: 500 uM
Outline: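 Values give the fluorescence ratio for each switch-domain sequence, averaged from per-cluster ratios of summed target-cycle to summed buffer-cycle Cy3 intensity. The Cy3-labelled switching-strand clusters sat on a modified Illumina MiSeq flow-cell, were annealed to 100 nM quencher-labelled ATP aptamer, and were imaged in selection buffer, then after 15 min with 500 uM ATP at 22 °C. Five cycles ran with NaOH stripping and re-annealing between them, and clusters outside 100-1000 RFU were excluded.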
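Note: ATP exposure 15 min at 22 °C before imaging.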

| Sequence | switch fluorescence ratio |
| --- | --- |
| TTCATCGGTT | 0.9922 ± 0.0022 |
| AACGGCTCTT | 1.03 ± 0.074 |
| TAAGGTATGA | 1.002 ± 0.0076 |
| CAGGCTATTG | 0.988 ± 0.023 |
| ATTTGGGACT | 1.03 ± 0.036 |
| AGGAGAGACC | 0.9848 ± 0.0029 |
| TTTACTTTTT | 1.01 ± 0.027 |
| TTAGGCAGTA | 1.01 ± 0.067 |
| CGAGTCAGA | 1.067 ± 0.0096 |
| AAACTAGGGT | 0.9975 ± 0.0077 |
| GGTCATTATT | 0.968 ± 0.057 |
| TAAGTGCCAC | 1.01 ± 0.024 |
| CGGGGACGGG | 1.02 ± 0.013 |
| CAGCTAGATA | 0.9987 ± 0.0065 |
| GATAGGTAAG | 0.962 ± 0.025 |
| GGGTTGTGGA | 1 ± 0.029 |
| ATGTATGTGC | 0.997 ± 0.041 |
| TTTATTGCGG | 1.01 ± 0.043 |
| TTGTTGGCGG | 0.994 ± 0.025 |
| TTGGGACGTC | 1.02 ± 0.048 |
| AGCAACATTG | 1.01 ± 0.06 |
| AGAGCATAGG | 1.03 ± 0.048 |
| AGTTTTCCTG | 0.985 ± 0.015 |
| AGATGGGTGT | 1.04 ± 0.041 |
| TCTTGGCGCC | 0.97579 ± 0.00051 |

| Sequence | switch fluorescence ratio |
| --- | --- |
| GACACATCAA | 1.048 ± 0.008 |
| AAATAGAAAT | 0.96 ± 0.011 |
| TGAGATAGAT | 1 ± 0.013 |
| AATGGCATTC | 1.03 ± 0.038 |
| ATAGGTATGA | 0.988 ± 0.01 |
| TTTTTATATT | 1.21 ± 0.44 |
| ACGGCTGTTC | 1.01 ± 0.027 |
| TGTTACTCCT | 1.09 ± 0.026 |
| TTCGTGGTGT | 1.03 ± 0.015 |
| TTATGCGTTT | 1.2 ± 0.28 |
| GGGGTTGCGT | 0.996 ± 0.034 |
| GTTTGCAAGT | 1.011 ± 0.0072 |
| ATCGTTCCGC | 1.22 ± 0.03 |
| CATTTAACGT | 0.991 ± 0.0041 |
| TTCAGGGGGT | 1.02 ± 0.054 |
| AAGTTGGGCC | 0.955 ± 0.044 |
| TACTCTTTTC | 1.02 ± 0.034 |
| CATGCCGCAT | 1.133 ± 0.0092 |
| TAAAGGGTTT | 0.982 ± 0.021 |
| TTCTTGCGCC | 1.076 ± 0.0073 |
| GCTTATTTAA | 0.99 ± 0.021 |
| AGTGGGTTGG | 0.99 ± 0.014 |
| AATGAAGGTC | 0.965 ± 0.079 |
| TTCTGGGGGC | 1.05 ± 0.064 |
| CGTTGGAAGG | 0.985 ± 0.021 |

| Sequence | switch fluorescence ratio |
| --- | --- |
| AATTGCTACC | 1.07 ± 0.013 |
| AGGGAAAAAT | 1.06 ± 0.082 |
| ATGAGGGTCC | 1.1 ± 0.032 |
| TAAAAATATT | 0.961 ± 0.03 |
| TAAAGGATAT | 1.01 ± 0.014 |
| TTTTGGGAAC | 1.02 ± 0.037 |
| GGCTGGGGTG | 1.04 ± 0.071 |
| TACATTTATA | 1.02 ± 0.019 |
| ACATGCGCGG | 0.9999 ± 0.0079 |
| GATGTGGTGC | 1.016 ± 0.0038 |
| GGGTAATTAG | 1.03 ± 0.041 |
| GATGTTATTA | 0.979 ± 0.038 |
| TATTGTCCTT | 1.019 ± 0.0056 |
| GGTTGAGATG | 0.982 ± 0.014 |
| TATTCACGGG | 1.0859 ± 0.00034 |
| TGTTTTCGCA | 1 ± 0.021 |
| ATATGCCGAT | 0.996 ± 0.013 |
| TAACGGAGGT | 1.02 ± 0.014 |
| AATCGGGCAA | 1.34 ± 0.03 |
| ATTTTTATAC | 1.02 ± 0.021 |
| ACCCGAAGGG | 0.948 ± 0.075 |
| TCATTTATTA | 1.04 ± 0.023 |
| CTCCTTGTCG | 1.014 ± 0.0077 |
| CGGTTGTAAT | 1.03 ± 0.041 |
| TTGTTGAGGA | 1.01 ± 0.028 |

| Sequence | switch fluorescence ratio |
| --- | --- |
| CACTAATTTT | 1.03 ± 0.019 |
| ATGCGCAGCG | 1.04 ± 0.035 |
| TTCTGTTTCT | 0.995 ± 0.011 |
| GAAGATGCGG | 1.0002 ± 0.00028 |
| GTTAGTAGCT | 0.97 ± 0.013 |
| TCCTTTTAGA | 1.01 ± 0.011 |
| GTTGGGGTGA | 1.05 ± 0.02 |
| TTCGTATACC | 0.988 ± 0.051 |
| CTGGGAGTGG | 1.04 ± 0.013 |
| AGATAGGGGA | 1.01 ± 0.025 |
| TCAAGATTGG | 0.986 ± 0.023 |
| ATGAATAAAT | 1.012 ± 0.0058 |
| CGTTTGGGTG | 1.02 ± 0.055 |
| GGGGGCGGCG | 1 ± 0.051 |
| GCTAACGGTT | 0.981 ± 0.011 |
| AAGTAGAATT | 1.015 ± 0.0045 |
| GGACACGATT | 0.986 ± 0.051 |
| GCTACTTAGT | 1.02 ± 0.017 |
| GGTGTTAGAT | 0.993 ± 0.035 |
| GTTAATCTTA | 0.9873 ± 0.0036 |
| GTGTAAATCT | 1.036 ± 0.0046 |
| TCGAATAACT | 2.2 ± 1.7 |
| TCAAGGGGAA | 1 ± 0.019 |
| CATTCACATT | 1.05 ± 0.034 |
| GAAGCTGCTT | 0.9908 ± 0.0073 |

| Sequence | switch fluorescence ratio |
| --- | --- |
| AAGGATTATG | 1 ± 0.07 |
| TGGAAAGGGT | 1.06 ± 0.035 |
| ACGGCTGGAA | 0.969 ± 0.015 |
| TGGCAGTGTG | 1.05 ± 0.019 |
| GGTTTAATAG | 0.986 ± 0.026 |
| CGGAGCGGCG | 1.042 ± 0.0095 |
| ATGTTGAACT | 0.99 ± 0.002 |
| TGGGGGAGGA | 0.979 ± 0.02 |
| TGTTTGAAGA | 1 ± 0.028 |
| TGGTTGAAT | 1.01 ± 0.049 |
| CAGGGCGC | 1.02 ± 0.088 |
| CCATTATTTT | 1 ± 0.03 |
| AAGGTAGGGG | 0.986 ± 0.018 |
| AACGAGGGTC | 1.01 ± 0.049 |
| CCAGTTTTCC | 1.01 ± 0.036 |
| TGTTGGTGGG | 0.989 ± 0.024 |
| GCTGAAGTTT | 0.979 ± 0.038 |
| AGGTTTGGGA | 0.987 ± 0.032 |
| CGGGAGGTA | 1.0174 ± 1.4e-06 |
| TTTAAATATG | 0.9942 ± 0.0073 |
| GCTATATACA | 1.04 ± 0.014 |
| TAGTGTGGGC | 0.999 ± 0.017 |
| TATCGGGGGA | 0.985 ± 0.061 |
| GTCTAGGGGG | 1.05 ± 0.089 |
| TTCATAGTGA | 0.95 ± 0.028 |

| Sequence | switch fluorescence ratio |
| --- | --- |
| AGGCCTTCGA | 1.003 ± 0.0083 |
| ACGGACATGG | 1.08 ± 0.017 |
| AGTGACCCCT | 1.06 ± 0.035 |
| GGTTACGCTA | 1.11 ± 0.074 |
| GACCACGCTG | 1.044 ± 0.0056 |
| CGTTCACCGG | 0.959 ± 0.049 |
| ACGAGGCTCA | 1.062 ± 0.0068 |
| TTCATAGGTT | 1.02 ± 0.012 |
| TTTGCTTTTT | 1 ± 0.036 |
| TCATTAAGGC | 1.01 ± 0.015 |
| ATCTTAAATA | 0.9918 ± 0.0058 |
| TTGTGGCCAT | 0.974 ± 0.022 |
| CATGTTCTTT | 0.999 ± 0.026 |
| GGGGAAAAGA | 1 ± 0.025 |
| TTTACTTGCG | 0.9759 ± 0.0038 |
| GGTTGCAGCT | 0.975 ± 0.018 |
| GGTTATGTGT | 0.964 ± 0.014 |
| GCTAAAGTCT | 1.043 ± 0.0085 |
| AATTGTTGGT | 1.01 ± 0.036 |
| CGACGGAAGG | 1.25 ± 0.06 |
| GAGGTCGCGC | 1.01 ± 0.043 |
| TAGCCCTGTG | 1.05 ± 0.014 |
| CTGGGGGTGG | 0.964 ± 0.011 |
| TATGATCACG | 0.995 ± 0.011 |
| ACATTTTGCG | 0.99926 ± 0.00068 |

| Sequence | switch fluorescence ratio |
| --- | --- |
| TAGGGGAAGG | 1.03 ± 0.05 |
| TGCTTGGTTT | 1.02 ± 0.018 |
| GGATGAGGGC | 0.993 ± 0.0099 |
| ATTGCAGGTT | 0.965 ± 0.01 |
| TAATGGGCGT | 1 ± 0.012 |
| AAAGGTCGAT | 0.986 ± 0.022 |
| CTTGTGGATG | 1 ± 0.029 |
| CATGAGAGGT | 1 ± 0.018 |
| GGATGTCACT | 0.974 ± 0.016 |
| ACCTTTTTTT | 1.17 ± 0.11 |
| TTAGTTTGTC | 0.986 ± 0.063 |
| AACGCGGTAT | 1.03 ± 0.095 |
| TTTTTTTAGC | 1.03 ± 0.064 |
| AGTTGGTCTC | 1.13 ± 0.12 |
| TAGCGCTTTA | 1.01 ± 0.017 |
| GACTTACGTT | 1.22 ± 0.17 |
| CTTACCTTGC | 1.99 ± 0.44 |
| TTCAGTGTTT | 0.993 ± 0.023 |
| GTATTTTTAG | 0.993 ± 0.033 |
| CAATGTAGGG | 1.004 ± 0.0077 |
| GAAGTTCGAG | 0.998 ± 0.016 |
| ATTGTCTTTG | 0.982 ± 0.018 |
| ATGATCTTCG | 1.038 ± 0.0053 |
| TATGGCTGTG | 1.02 ± 0.06 |
| GAGGGGCATG | 1.01 ± 0.032 |

| Sequence | switch fluorescence ratio |
| --- | --- |
| TTGAGAAGGG | 1.04 ± 0.04 |
| GCGGCGGGGG | 0.99 ± 0.031 |
| AGGGTGGTAG | 0.978 ± 0.035 |
| TGCAGGGGGT | 1.09 ± 0.14 |
| ATGACTTGTA | 0.987 ± 0.015 |
| GGAAATGACT | 1.01 ± 0.021 |
| TGTGATGAGT | 0.992 ± 0.024 |
| CAATAGGGGA | 1.01 ± 0.017 |
| TTTTGACTTG | 0.948 ± 0.0044 |
| GGGATGGGCA | 1.01 ± 0.055 |
| AATAATAGGC | 0.97 ± 0.012 |
| TGAAACGGAA | 1.15 ± 0.079 |
| AGGGGATTTG | 0.999 ± 0.03 |
| AGAGGTAAT | 1.09 ± 0.12 |
| TGAAATCCGA | 1 ± 0.027 |
| TTCGGGGACG | 0.969 ± 0.052 |
| TTACTGATCC | 1.04 ± 0.019 |
| TCGGTTGAGG | 0.983 ± 0.025 |
| TGGGGATTCT | 0.976 ± 0.0054 |
| ACTACATTGG | 1.033 ± 0.0065 |
| TAAGAGACGC | 1.014 ± 0.0061 |
| AATGTAAATA | 1.01 ± 0.018 |
| TGTGAGGCGG | 1.04 ± 0.11 |
| GGTAGGGGGT | 1 ± 0.03 |
| AGTAAAGTGG | 0.971 ± 0.025 |
